Test system: human astrocytes
Experiment: cDNA bank screening: COS-7 transfectant supernatants on human astrocytes, CXCL8 release
Type: cell-based
Conditions: COS-7 supernatant, 48 h
Description: Cos-7 cells (25,000 cells per well in 96-well plates) were transfected for 5 h with 768 pools of cDNA derived from human brain tumours (5 pooled tumours including meningioma, oligodendroglioma, astrocytoma grades II and IV, and medulloblastoma; NCI CGAP Brn35; Invitrogen) using lipofectamine, after which cells were thoroughly washed. Transfection with green-fluorescent protein-encoding cDNA was used as an internal control for transfection efficiencies. After continued culture of the transfected cells for 48 h, 75 μL of each culture supernatant was harvested and added to cultured human astrocytes seeded at 1,000 cells per well in 75 μL. After 48 h of culture, supernatants were harvested and evaluated for CXCL8 release using ELISA. […]
A cDNA bank derived from 5 pooled tumours including meningioma, oligodendroglioma, astrocytoma grades II and IV and medulloblastoma was used as a source of sequences potentially encoding an endogenous protein agonist for TLR3. The cDNAs were cloned into plasmid vectors promoting expression and secretion of the cDNA-encoded product by mammalian cells, and these plasmids were transfected into COS-7 cells and evaluated in a two-step approach. […] To monitor such an astrocyte response in this first stage, secretion of CXCL8 was evaluated since this is a sensitive marker for TLR3 activation in these and other cells (cf. FIGS. 9 and 10). […]

B1: clone F5: cDNA clone product with amino acid sequence identical to residues 44-149 of human stathmin (protein)
chain: DFSLEEIQKKLEAAEERRKSHEAEVLKQLAEKREHEKEVLQKAIEENNNFSKMAEEKITHKMEANKENREAQMAAKLERLREKDKHIEEVRKNKESKDPADETEAD
  CXCL8 secretion in astrocytes triggered by cDNA-encoded product: marked CXCL8 secretion

From patent publication US20090253622A1, “USE OF TLR3 AGONISTS FOR THE TREATMENT OF NEURODEGENERATIVE DISORDERS” (Nederlandse Organisatie voor toegepast - …, priority 2006, published 2009)
